Measured values reported in patent publication US20200123264A1 (Regeneron, published 2020).

Assays:
[1] = biological target: T1, recombinant human LEPR extracellular domain expressed with a C-terminal myc-myc-hexahistidine tag (human, UniProt P48357 22-839); test: Luminex, myc-captured LEPR protein on beads, Ab 0.5 µg/mL
T1 construct: Monomeric construct; also called hLEPR.MMH; hLEPR-MMH
Method: (§1) Aliquots of microspheres with immobilized anti-myc monoclonal antibodies, prepared as described above, were added individually to 1 mL of the each of these protein supernatants. The microspheres were gently mixed, incubated for two hours at 25° C., washed twice with 1 mL of DBPS, centrifuged to remove the supernatant and finally resuspended in 1 mL of DPBS buffer. Forty eight μL of anti-myc IgG coupled microspheres from individual reactions with full length human LEPR and with each of the human LEPR domain proteins were withdrawn and mixed together in 3.6 mL of PBS+20 mg/mL BSA+0.05% sodium azide (blocking buffer).
(§2) From this mixed pool, 75 μL of microspheres were plated per well on a 96 well filter plate (Millipore, Cat. No: MSBVN1250) and mixed with 25 μL of individual anti-human LEPR monoclonal antibodies (0.5 or 5 μg/mL), incubated for two hours at 25° C. and then washed twice with 200 μL of DPBS with 0.05% Tween 20 (washing buffer). […] After 30 minutes, the samples were washed twice with 200 μL of washing buffer and resuspended in 150 μL of wash buffer. The Median Fluorescence intensity (MFI) of the microspheres was measured in a Luminex Analyzer.

[2] = biological target: T2, human LEPR Ig (D3)-MMH (human, UniProt P48357 340-427, limits assumed); test: as above
T2 construct: domain: Ig (D3); Transiently expressed, captured from supernatant on anti-myc beads
T2 sequence (looked up): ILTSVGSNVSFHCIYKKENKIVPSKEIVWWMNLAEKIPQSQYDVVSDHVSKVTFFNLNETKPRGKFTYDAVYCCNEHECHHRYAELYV
Method: as §1, §2

[3] = biological target: T3, human LEPR CRH2-MMH (human, UniProt P48357 428-634, limits assumed); test: as above
T3 construct: domain: CRH2; Transiently expressed, captured from supernatant on anti-myc beads
T3 sequence (looked up): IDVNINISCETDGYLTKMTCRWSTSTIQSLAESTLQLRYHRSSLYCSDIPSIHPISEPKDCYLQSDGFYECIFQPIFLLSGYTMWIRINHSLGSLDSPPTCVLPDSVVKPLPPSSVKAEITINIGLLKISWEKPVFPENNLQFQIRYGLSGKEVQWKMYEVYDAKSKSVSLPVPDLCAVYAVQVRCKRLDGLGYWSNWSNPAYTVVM
Method: as §1, §2

[4] = biological target: T4, human LEPR Ig-CRH2-FNIII-MMH (human, UniProt P48357 330-839, limits assumed); test: as above
T4 construct: domain: Ig-CRH2-FNIII; Transiently expressed, captured from supernatant on anti-myc beads
T4 sequence (looked up): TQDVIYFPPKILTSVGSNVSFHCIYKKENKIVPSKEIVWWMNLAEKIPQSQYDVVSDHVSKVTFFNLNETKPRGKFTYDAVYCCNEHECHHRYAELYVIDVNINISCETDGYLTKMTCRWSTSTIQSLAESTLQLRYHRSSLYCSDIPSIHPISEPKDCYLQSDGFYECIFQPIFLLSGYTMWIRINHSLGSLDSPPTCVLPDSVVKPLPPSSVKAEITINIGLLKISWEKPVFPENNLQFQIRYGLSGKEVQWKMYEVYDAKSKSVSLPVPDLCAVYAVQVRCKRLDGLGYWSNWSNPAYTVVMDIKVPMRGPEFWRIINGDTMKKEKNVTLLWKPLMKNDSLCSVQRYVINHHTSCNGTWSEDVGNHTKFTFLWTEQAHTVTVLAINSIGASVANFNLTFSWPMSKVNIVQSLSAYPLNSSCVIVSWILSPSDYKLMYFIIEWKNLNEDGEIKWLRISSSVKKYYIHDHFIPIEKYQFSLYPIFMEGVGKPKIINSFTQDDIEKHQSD
Method: as §1, §2

[5] = biological target: T5, full-length human LEPR on IMR-32/STAT3-Luc/hLEPR cells (human, UniProt P48357 22-1165); test: cell-based or functional assay
T5 sequence (looked up): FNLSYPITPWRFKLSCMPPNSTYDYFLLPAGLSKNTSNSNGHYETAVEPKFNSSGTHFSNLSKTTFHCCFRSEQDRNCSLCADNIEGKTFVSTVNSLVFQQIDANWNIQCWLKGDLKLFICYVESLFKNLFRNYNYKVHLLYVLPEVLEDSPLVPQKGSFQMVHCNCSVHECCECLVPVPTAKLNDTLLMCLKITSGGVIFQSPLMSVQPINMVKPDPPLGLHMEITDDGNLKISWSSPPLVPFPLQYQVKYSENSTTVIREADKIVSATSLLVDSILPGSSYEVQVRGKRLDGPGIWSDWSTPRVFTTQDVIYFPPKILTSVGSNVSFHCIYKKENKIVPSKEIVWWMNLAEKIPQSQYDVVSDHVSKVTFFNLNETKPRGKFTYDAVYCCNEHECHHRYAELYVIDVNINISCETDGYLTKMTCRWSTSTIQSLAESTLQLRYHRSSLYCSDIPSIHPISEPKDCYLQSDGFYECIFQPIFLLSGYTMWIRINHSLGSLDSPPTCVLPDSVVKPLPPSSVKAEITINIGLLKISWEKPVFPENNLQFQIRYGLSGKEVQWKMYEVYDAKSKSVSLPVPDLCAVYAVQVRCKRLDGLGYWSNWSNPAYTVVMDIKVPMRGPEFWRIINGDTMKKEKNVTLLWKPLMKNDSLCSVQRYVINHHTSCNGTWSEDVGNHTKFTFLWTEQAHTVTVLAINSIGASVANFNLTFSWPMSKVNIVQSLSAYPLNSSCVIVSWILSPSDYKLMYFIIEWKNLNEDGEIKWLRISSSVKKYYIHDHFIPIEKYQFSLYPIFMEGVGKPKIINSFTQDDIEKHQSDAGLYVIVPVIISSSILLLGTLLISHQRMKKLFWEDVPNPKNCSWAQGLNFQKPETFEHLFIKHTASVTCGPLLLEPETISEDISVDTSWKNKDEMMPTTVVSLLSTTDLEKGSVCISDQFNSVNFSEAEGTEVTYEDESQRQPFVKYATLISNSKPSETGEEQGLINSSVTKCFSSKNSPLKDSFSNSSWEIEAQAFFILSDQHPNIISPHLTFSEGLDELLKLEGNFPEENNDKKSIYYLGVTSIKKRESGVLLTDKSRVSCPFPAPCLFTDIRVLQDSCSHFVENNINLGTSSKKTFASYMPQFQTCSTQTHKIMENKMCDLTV

B1: H4H18462P2 (antibody, human IgG4, V domains shown)
VH: EVQLVESGGDLVQPGRSLRLSCAASGFTFSSFAMSWVRQAPGRGLEWVSSLSDSGDNTYYADSVKGRFTISRDNSKNTLYLQMNNLRAEDTAVYYCAKDLFSGWLFHGFDVWGQGTMVTVSS
VL: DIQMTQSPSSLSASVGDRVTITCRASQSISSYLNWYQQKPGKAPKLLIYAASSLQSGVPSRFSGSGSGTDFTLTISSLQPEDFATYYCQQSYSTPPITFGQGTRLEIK
notes: H4H prefix: human IgG4 Fc
- Luminex MFI [1]: 3610 MFI
- Luminex MFI [2]: 10 MFI
- Luminex MFI [3]: 8 MFI
- Luminex MFI [4]: 11200 MFI

B2: H4H18464P2 (antibody, human IgG4, V domains shown)
VH: QVQLVQSGPEVKKPGASVKVSCKGSGYTFSWYGISWIRQAPGHGLEWMGWISASSGNTRFAQKVQGRLTMTTDTSTSTAYMELRSLRSDDTAVYYCARTGTRPFDYWGQGTLVTVSS
VL: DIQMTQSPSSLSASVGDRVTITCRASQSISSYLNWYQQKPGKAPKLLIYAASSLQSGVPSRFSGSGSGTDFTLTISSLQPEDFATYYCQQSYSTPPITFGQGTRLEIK
notes: H4H prefix: human IgG4 Fc
- % activation, IMR-32/LEPR without human Leptin [5]: 6%
- % inhibition, IMR-32/LEPR with 200 pM human Leptin [5]: 100%
- EC50 (M), IMR-32/LEPR without human Leptin (STAT3-Luc) [5]: 1.3e-10 M
- IC50 (M), IMR-32/LEPR with 200 pM human Leptin [5]: 2.9e-09 M

B3: H4H18457P2 (antibody, human IgG4, V domains shown)
VH: EVQLVESGGSVVRPGESLRLSCAASGFTFDDYGMSWVRQAPGKGLEWVSGISWNGGITVYADSVKGRFTVSRDNAKNSLYLQMNSLRAEDTALYHCARARYGGADYWGQGTLVTVSS
VL: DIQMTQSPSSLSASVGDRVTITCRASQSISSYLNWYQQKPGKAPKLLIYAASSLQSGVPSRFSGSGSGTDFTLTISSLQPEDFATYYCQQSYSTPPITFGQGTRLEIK
notes: H4H prefix: human IgG4 Fc
- % inhibition, IMR-32/LEPR with 200 pM human Leptin [5]: 100%
- IC50 (M), IMR-32/LEPR with 200 pM human Leptin [5]: 7.23e-10 M

B4: H4H18440P2 (antibody, human IgG4, V domains shown)
VH: QVQLVESGGGMVKPGGSLRLSCAASGFTFSDYYMSWIRQAPGKGLEWISHISITGSTIYYADSVKGRFTISRDNAKNSLYLEMNRLRDEDTAVYYCTRDEPDIVLVRYGMDVWGQGTTVTVSS
VL: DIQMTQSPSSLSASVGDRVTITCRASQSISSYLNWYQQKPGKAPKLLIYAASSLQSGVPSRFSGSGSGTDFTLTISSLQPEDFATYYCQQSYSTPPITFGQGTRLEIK
notes: H4H prefix: human IgG4 Fc
- % activation, IMR-32/LEPR without human Leptin [5]: 4%
